Measured values from patent publication US11459389 (dated 2022).

T1: human KLRG1 (human, UniProt Q96E93)
T1 chain: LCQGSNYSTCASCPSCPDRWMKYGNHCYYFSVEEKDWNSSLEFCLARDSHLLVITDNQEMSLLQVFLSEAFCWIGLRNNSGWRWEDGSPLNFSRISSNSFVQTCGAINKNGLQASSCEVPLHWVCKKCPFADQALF

T2: human Clec5A (human, UniProt Q9NY25)
T2 chain: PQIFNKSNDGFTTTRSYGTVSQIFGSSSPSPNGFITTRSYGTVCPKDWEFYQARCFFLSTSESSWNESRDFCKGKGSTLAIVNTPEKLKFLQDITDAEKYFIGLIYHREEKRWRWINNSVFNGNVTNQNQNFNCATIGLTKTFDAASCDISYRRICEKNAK

T3: human Clec7A (human, UniProt Q9BXN2)
T3 chain: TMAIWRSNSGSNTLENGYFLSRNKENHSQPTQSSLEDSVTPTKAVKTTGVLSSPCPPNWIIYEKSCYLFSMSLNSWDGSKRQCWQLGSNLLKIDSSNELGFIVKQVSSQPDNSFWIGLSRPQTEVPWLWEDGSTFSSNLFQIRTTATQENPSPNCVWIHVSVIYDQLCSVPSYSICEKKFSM

T4: human Clec10A (human, UniProt Q8IUN9)
T4 chain: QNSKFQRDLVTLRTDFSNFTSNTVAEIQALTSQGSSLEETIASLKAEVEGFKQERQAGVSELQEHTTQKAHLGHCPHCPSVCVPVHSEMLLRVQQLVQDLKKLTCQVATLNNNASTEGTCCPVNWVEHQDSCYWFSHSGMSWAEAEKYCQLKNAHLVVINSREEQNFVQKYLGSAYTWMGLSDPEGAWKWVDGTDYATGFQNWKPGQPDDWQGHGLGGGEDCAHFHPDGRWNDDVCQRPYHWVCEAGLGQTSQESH

T5: human KLRF2 (human, UniProt D3W0D1)
T5 chain: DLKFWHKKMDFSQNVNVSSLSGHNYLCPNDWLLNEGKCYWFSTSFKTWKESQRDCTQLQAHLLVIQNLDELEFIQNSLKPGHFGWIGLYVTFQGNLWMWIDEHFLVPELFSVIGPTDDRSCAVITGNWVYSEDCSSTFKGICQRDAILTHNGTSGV

T6: human KLRF1 (human, UniProt Q9NZS2)
T6 chain: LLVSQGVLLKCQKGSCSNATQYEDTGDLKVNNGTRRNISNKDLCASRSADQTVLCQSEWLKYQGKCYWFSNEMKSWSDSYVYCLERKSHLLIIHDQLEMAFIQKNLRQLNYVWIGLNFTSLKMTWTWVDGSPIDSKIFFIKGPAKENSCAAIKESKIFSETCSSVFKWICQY

T7: human CD94 (human, UniProt Q13241)
T7 chain: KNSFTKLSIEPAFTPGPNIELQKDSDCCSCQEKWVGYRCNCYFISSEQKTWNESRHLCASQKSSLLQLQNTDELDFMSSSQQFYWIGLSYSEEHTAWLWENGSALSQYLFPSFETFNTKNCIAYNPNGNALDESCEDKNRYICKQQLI

T8: human Clec4E (human, UniProt Q9ULY5)
T8 chain: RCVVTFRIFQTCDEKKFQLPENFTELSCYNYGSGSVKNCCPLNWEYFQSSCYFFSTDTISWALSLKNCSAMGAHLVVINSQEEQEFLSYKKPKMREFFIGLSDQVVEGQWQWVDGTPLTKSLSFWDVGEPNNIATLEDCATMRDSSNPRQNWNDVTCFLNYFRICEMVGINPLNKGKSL

T9: human CD209 (human, UniProt Q9NNX6)
T9 chain: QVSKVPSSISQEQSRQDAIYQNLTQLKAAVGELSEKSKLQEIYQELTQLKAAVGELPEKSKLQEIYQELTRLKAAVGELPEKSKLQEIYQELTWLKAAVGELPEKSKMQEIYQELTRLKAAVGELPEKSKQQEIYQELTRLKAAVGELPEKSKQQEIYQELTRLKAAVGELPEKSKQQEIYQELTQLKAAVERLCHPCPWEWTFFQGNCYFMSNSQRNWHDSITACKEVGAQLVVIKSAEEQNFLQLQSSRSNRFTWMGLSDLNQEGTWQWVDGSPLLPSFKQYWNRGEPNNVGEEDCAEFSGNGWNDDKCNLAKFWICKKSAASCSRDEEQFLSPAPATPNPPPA

T10: human Clec12B (human, UniProt Q2HXU8)
T10 chain: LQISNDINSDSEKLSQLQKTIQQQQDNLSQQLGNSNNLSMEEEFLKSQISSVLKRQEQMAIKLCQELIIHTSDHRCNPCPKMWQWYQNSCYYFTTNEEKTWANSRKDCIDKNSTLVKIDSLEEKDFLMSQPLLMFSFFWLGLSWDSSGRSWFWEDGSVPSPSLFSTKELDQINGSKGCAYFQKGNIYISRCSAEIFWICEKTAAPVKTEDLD


Columns and labels:
Experiment in all cases: FACS
[1] = biological target: T1, human KLRG1
[2] = biological target: T2, human Clec5A
[3] = biological target: T3, human Clec7A
[4] = biological target: T4, human Clec10A
[5] = biological target: T5, human KLRF2
[6] = biological target: T6, human KLRF1
[7] = biological target: T7, human CD94
[8] = biological target: T8, human Clec4E
[9] = biological target: T9, human CD209
[10] = biological target: T10, human Clec12B
[11] = biological target: human Clec9A (human, UniProt Q6UXN8)
[12] = biological target: human CD161 (human, UniProt Q12918)

human Clec9A, sequence (Q6UXN8 57-241): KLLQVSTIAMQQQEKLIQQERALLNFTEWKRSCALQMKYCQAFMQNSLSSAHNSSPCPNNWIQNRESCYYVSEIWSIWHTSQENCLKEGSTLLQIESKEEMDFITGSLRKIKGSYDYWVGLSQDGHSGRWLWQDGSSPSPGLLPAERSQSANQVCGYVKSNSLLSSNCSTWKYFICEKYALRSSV

| Binder | binding result [1] | binding result [2] | binding result [3] | binding result [4] | binding result [5] | binding result [6] | binding result [7] | binding result [8] | binding result [9] | binding result [10] | binding result [11] | Kd [12] [nM] |
| --- | --- | --- | --- | --- | --- | --- | --- | --- | --- | --- | --- | --- |
| KM12.4.7 (antibody) chain 1: EVQLVESGGGLVQPGGSLRLPCAASGFTFSSYAMSWIRQAPGKGLEWVSAISGSGGSIYYADSVKGRFTISRDNSKNTLYLQMDSLRAEDTAVYYCARGYSDSYFYGPYYTFDYWGQGTLVTVSS chain 2: not shown | no binding | no binding | no binding | no binding | no binding | no binding | no binding | no binding | no binding | no binding | no binding |  |
| KW1.3.12 (antibody) chain 1: EVQLVESGGGLVQPGGSLRLSCAASGFTFSSYAMSWVRQAPGKGLEWVSTISGSGGSTYYADSVKGRFTISRDNSRNTLYLQMNSLRAEDTAVYYCARGGLIPSGFDYWGQGTLVTVSS chain 2: DIQMTQSPSSLSASVGDRVTITCRASQSISSYLNWYQQKPGKAPKLLIYAASSLLSGVPSRFSGSGSGTDFTLTISSLQPEDFATYYCQQTYSAPLTFGQGTKVEIK | no binding | no binding | no binding | no binding | no binding | no binding | no binding | no binding | no binding | no binding | no binding |  |
| KW1.2.1 (antibody) chain 1: EVQLVESGGGLVQPGGSLRLSCAASGSTFSSYAMSWVRQAPGKGLEWVSTISGSGGSTYYADSVKGRFTISRDNSRNTLYLQMNSLRAEDTAVYYCARGGLIPSGFDYWGQGTLVTVSS chain 2: DIQMTQSPSSLSASVGDRVTITCRASQSISSYLNWYQQKPGKAPKLLIYAASSLLSGVPSRFSGGGSGTDFTLTISSLQPEDFATYYCQQTYSTPLTFGQGTKVEIK |  |  |  |  |  |  |  |  |  |  |  | 0.233 |
| KW7.3.7 (antibody) chain 1: EVQLVESGGGLVQPGGSLRLSCAASGFTFSSYAMSWVRQAPGKGLEWVSATSGSGGSTYYADSAKGRFTISRDNSKNTLYLQMNSLRAEDTAVYYCARGGYLPDAFDYWGRGTLVTVSS chain 2: DIQMTQSPSSLSASVGDRVTITCWASQSISSYLNWYQQEPGKAPKLLIYAASSLQSGVPSRFSGSGSGTDFTLTISSLQPEDFATYYCQQTYSTPLTFGQGTKVEIK | no binding | no binding | no binding | no binding | no binding | no binding | no binding | no binding | no binding | no binding | no binding |  |
